{
  "source": "patent US20050148035A1",
  "about": "(Genentech, published 2005)",
  "binders": {"B1": {"name": "peptide bp15 (peptide)", "peptide": "SEEVCWPVAEWYLCN", "notes": "Identified by phage display (Lowman et al. 1998); also called bp15 peptide"}},
  "key": {"miniBP-3 fusion protein": {"target": "T1, miniBP-3 fusion protein (human)", "T1 construct": "Uncleaved fusion, made in E. coli BL21 from pET21a and purified on IgG Sepharose", "assay": "BIAcore competition, bp15 preincubated with miniBP-3 fusion, injected over immobilised biotinylated IGF-I"}, "[1]": {"target": "T2, native-sequence human IGFBP-3 (human, UniProt P17936 28-291)", "T2 construct": "also called wild-type IGFBP-3; full-length IGFBP-3", "assay": "BIAcore competition: bp15 (15 nM to 100 µM) pre-incubated 1 h with 20 nM IGFBP-3, injected over immobilised biotinylated IGF-I (bIGF-I, squares); blocked ligand IGF-I; one-site competition fit"}, "[2]": {"target": "T2, native-sequence human IGFBP-3", "assay": "BIAcore competition: bp15 (15 nM to 100 µM) pre-incubated 1 h with 20 nM IGFBP-3, injected over immobilised biotinylated IGF-II (bIGF-II, triangles); blocked ligand IGF-II; one-site competition fit"}},
  "data": [
    {"binder": "B1", "values": [
      {"measurement": "binding result", "setting": "miniBP-3 fusion protein", "value": "binds"},
      {"measurement": "IC50", "setting": "[1]", "value": 0.105, "unit": "µM"},
      {"measurement": "IC50", "setting": "[2]", "value": 0.147, "unit": "µM"}
    ]}
  ]
}
